This note sets out measurements from paper PMC3439906.

The target in this assay is M.EcoKI MTase (M2S1 methyltransferase core of the EcoKI Type I RM system) (E. coli K12) (UniProt P08957). The assay can be described thus: ITC.
Sequence of UniProt P08957 (P08957 whole entry, chain 1 of 2): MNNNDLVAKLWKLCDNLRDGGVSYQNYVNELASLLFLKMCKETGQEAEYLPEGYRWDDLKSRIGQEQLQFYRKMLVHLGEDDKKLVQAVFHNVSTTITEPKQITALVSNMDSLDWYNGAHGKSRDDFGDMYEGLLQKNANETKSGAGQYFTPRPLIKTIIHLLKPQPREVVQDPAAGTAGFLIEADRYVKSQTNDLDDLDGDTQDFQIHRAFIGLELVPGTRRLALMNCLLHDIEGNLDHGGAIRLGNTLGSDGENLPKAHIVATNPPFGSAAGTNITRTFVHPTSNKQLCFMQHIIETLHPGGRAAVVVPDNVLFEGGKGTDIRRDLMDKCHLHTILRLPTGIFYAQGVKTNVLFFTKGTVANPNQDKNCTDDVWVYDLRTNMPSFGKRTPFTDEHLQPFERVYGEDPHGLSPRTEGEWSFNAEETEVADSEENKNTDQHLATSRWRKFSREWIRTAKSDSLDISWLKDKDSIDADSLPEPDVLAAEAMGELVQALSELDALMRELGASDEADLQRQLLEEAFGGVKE
Sequence of UniProt P08957 (P05719 whole entry, chain 2 of 2, further chain): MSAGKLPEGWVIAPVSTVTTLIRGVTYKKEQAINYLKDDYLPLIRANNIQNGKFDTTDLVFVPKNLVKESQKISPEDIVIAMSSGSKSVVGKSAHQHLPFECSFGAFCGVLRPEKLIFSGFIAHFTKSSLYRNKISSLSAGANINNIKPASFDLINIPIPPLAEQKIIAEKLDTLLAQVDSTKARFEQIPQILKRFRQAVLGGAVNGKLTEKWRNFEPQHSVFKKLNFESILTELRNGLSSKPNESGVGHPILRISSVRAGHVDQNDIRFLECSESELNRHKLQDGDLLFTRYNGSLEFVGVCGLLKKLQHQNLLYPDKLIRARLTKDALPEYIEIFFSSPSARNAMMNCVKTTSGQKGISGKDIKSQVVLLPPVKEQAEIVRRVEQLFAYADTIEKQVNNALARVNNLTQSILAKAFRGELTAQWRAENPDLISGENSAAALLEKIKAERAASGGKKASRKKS

For Ocr/POcr (natural protein), the dH is -15.3 kcal/mol and the stoichiometry N (Ocr dimers per M.EcoKI) was determined as 0.89.
